Target: T1, human CD8 (captured on Octet biosensor) (human, UniProt P01732 22-182)
T1 construct: also called recombinant human CD8a
Assay: method not given; Octet (BLI) is the method of this example

B1: humanized OKT8 variant (H2L1) (antibody)
chain 1: QVQLVQSGAEVKKPGASVKVSCKASGFNIKDTYIHWVRQAPGKGLEWMGRIDPANDNTLYASKFQGRVTITADTSINTAYMELSRLRSDDTAVYYCGRGYGYYVFDHWGQGTTVTVSSASTKGPSVFPLAPSSKSTSGGTAALGCLVKDYFPEPVTVSWNSGALTSGVHTFPAVLQSSGLYSLSSVVTVPSSSLGTQTYICNVNHKPSNTKVDKKVEPKSCDKTHTCPPCPAPPVAGPSVFLFPPKPKDTLMISRTPEVTCVVVDVKHEDPEVKFNWYVDGVEVHNAKTKPREEQYNSTYRVVSVLTVLHQDWLNGKEYKCKVSNKALPAPIEKTISKAKGQPREPQVYTLPPSREQMTKNQVKLTCLVKGFYPSDIAVEWESNGQPENNYKTTPPVLDSDGSFFLYSKLTVDKSRWQQGNVFSCSVMHEALHNHYTQKSLSLSPGK
chain 2: DIKMTQSPSSLSASVGDRVTITCRTSRSISQYLAWYQEKPGKTNKLLIYSGSTLQSGIPSRFSGSGSGTDFTLTISSLQPEDFATYYCQQHNENPLTFGAGTKLEIKRTVAAPSVFIFPPSDEQLKSGTASVVCLLNNFYPREAKVQWKVDNALQSGNSQESVTEQDSKDSTYSLSSTLTLSKADYEKHKVYACEVTHQGLSSPVTKSFNRGEC
chain 3: EPKSSDKTHTCPPCPAPPVAGPSVFLFPPKPKDTLMISRTPEVTCVVVDVKHEDPEVKFNWYVDGVEVHNAKTKPREEEYNSTYRVVSVLTVLHQDWLNGKEYKCKVSNKALPAPIEKTISKAKGQPREPQVYTLPPSREEMTKNQVSLTCDVSGFYPSDIAVEWESDGQPENNYKTTPPVLDSDGSFFLYSKLTVDKSRWEQGDVFSCSVMHEALHNHYTQKSLSLSPGK
Question: With B1 as the binder, how does the Kd read?
Answer: 12 nM
